According to patent US20240156935A1 (VIB VZW, published 2024):

T1: recombinant Q586B2 protein (Tb927.6.4140), produced in E. coli WK6
T1 chain: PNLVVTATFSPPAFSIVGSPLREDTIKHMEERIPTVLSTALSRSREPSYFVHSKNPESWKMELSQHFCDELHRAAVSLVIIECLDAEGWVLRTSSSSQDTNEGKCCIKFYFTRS

T2: native Q586B2 (Tb927.6.4140) of Trypanosoma brucei brucei parasites (Trypanosoma brucei brucei)
T2 construct: Native protein; also called native protein
T2 chain: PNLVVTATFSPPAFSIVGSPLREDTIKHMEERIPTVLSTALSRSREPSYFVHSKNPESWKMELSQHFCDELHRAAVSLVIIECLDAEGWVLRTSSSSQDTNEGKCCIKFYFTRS


Columns and labels:
[1] = target: T1, recombinant Q586B2 protein …; test: ELISA
[2] = target: T2, native Q586B2 (Tb927.6.4140) of …; test: flow cytometry on purified T. brucei brucei parasites, HA-tagged Nb, Alexa-488 anti-HA IgG
Method: FIG. 4A) Representative flow cytometric profile of purified, fixed and permeabilized T. brucei brucei parasites plotted in an SSC-A versus FSC-A plot and subsequently gating on single cells (FSC-H versus FSC-A plot). 10⁶ parasites in presence or absence of 5 μg of HA-tagged Nb was used per condition.

Binder	Kd [1]	binding result [2]
Nb53 (VHH) VHH: QVQLQESGGGSVQAGGSLRLSCSASGYTYSSHCTAWFRQAPGKEREALAAINSRSGTTYYADSVKGRFTISQDNTKNTAYLQMNSLKPEDTATYFCAALSFGCTGPLASLGQGTQVTVSS	45.5 nM	
Nb27 (VHH) VHH: QVQLQESGGGLVQPGGSLRLSCTTSRSILSIYAMGWYRQAPGKQRELVAVITSGGSTYYADSVKGRFTISRDNAKNTLYLQMNSLKPEDTALYYCARGGYGTSPQPSWGQGTQVTVSS	52 nM	
Nb39 (VHH) VHH: QVQLQESGGGLVQPGGSLRLSCTASGSIFSGYAMGWYRQAPGKQRELVAGITSGGSTIYAGSVKGRFTISRDNAKNTVYLQMNSLKPEDTAVYYCKNGTYYSARDYWGQGTQVTVSS	49.9 nM	
Nb34 (VHH) VHH: QVQLQESGGGLVQPGGSLRLSCAASGFTFSNSPMNWVRQAPGKGLEWVSAINSGGGSTYYADSVKGRFTISRDNAKNTLYLQMNSLKPEDTAVYYCAKGGRTYYSGSYYSWGMDYWGKGTQVTVSS	36.7 nM	
Nb41 (VHH, Llama nanobody purified by IMAC and SEC; It was HA-tagged in flow cytometry; also called anti-Q586B2 Nb) VHH: QVQLQESGGGLVQAGGSLRLSCAASGRTFSSYAMGWFRQAPGKEREFIALISWIGGSTAYADSVKGRFTISRDNAKNTLYLQMNSLKPEDTAVYYCATDRIGRHRGPGTQVTVSS	14.5 nM	binds
Nb32 (VHH, Llama nanobody purified by IMAC and SEC; It was HA-tagged in flow cytometry; also called anti-Q586B2 Nb) VHH: QVQLQESGGGLVQPGGSLRLSCAASGFTFSAYAMSWVRQAPGKGLEWVSTIDSGGGSTYYADSVKGRFTISRDNAKKTLYLHMNSLKPEDTAVYYCAKRGYSDYARHVWGQGTQVTVSS	46.6 nM	binds
Nb58 (VHH, Llama nanobody purified by IMAC and SEC; It was HA-tagged in flow cytometry; also called anti-Q586B2 Nb) VHH: QVQLQESGGGLVQPGGSLRLSCAASGRSISSIYAMGWYRQAPGKQRELVARLTSGGSSNYADSVKGRFTITRDNAQNTVYLQMNSLKPEDTAVYYCNAEPSRWWLDDDYWGQGTQVTVSS	36.7 nM	binds
Nb36 (VHH) VHH: QVQLQESGGGLVQPGGSLRLSCAASGFAFSFYWMNWVRQAPGKGLEWVSAINSGGGSTYYADSVKGRFTISRDNAKNTLYLQMNSLKPEDTAVYYCAKGIVQRGEYYGMDYWGKGTQVTVSS	11.3 nM	
